Among the data in paper PMC10581246, “The presence of benzene ring activating CoA ligases for aromatics degradation in the ANaerobic MEthanotrophic (ANME) archaea” (Microbiology Spectrum, 2023) are Km and kcat values, retold here.

What is called Km is the substrate concentration at which the rate is half of its maximum. For orientation: kcat means the number of substrate molecules converted per active site and unit of time at saturation.

Some test systems named below: O=C(O)c1ccc(O)cc1; O=C(O)c1cccc(O)c1; O=C(O)c1ccccc1; O=C(O)Cc1ccc(O)c(O)c1; O=C(O)Cc1ccccc1; O=C(O)Cc1ccc(O)cc1; O=C(O)Cc1cccc(O)c1.
Holding throughout (assay): purified protein
Conditions in all cases: apparent, 1 mM ATP, 0.5 mM CoA, 10 mM MgCl2, 50 mM Tris-HCl pH 8.0, room temperature

Regarding BadAANME (ANME-2 cluster archaeon), the Km in the series on O=C(O)c1ccc(O)cc1 was 55.08 ± 6.910 µM; in the series on O=C(O)c1cccc(O)c1, 76.97 ± 14.69 µM; with O=C(O)c1ccccc1, 12.98 ± 1.563 µM. For the same substance, the values for the turnover number (kcat) in the series with O=C(O)c1ccc(O)cc1, with O=C(O)c1cccc(O)c1 and in the series on O=C(O)c1ccccc1 were 0.1086 ± 0.02963 s⁻¹, 0.2197 ± 0.01127 s⁻¹ and 0.1127 ± 0.002522 s⁻¹, respectively.

In the case of “PaaKANME (PaaK1ANME) (ANME-2 cluster archaeon)”, the Km in the series on O=C(O)Cc1ccc(O)c(O)c1 was determined as 42.80 ± 15.03 µM; in the series with O=C(O)Cc1ccccc1, 180.6 ± 32.18 µM; in the series with O=C(O)Cc1ccc(O)cc1, 49.15 ± 12.54 µM; in the series with O=C(O)Cc1cccc(O)c1, 68.87 ± 9.425 µM. The kcat in the series on O=C(O)Cc1ccc(O)c(O)c1 was determined as 0.0976 ± 0.00722 s⁻¹; with O=C(O)Cc1ccccc1 it was 0.153 ± 0.00755 s⁻¹; with O=C(O)Cc1ccc(O)cc1, 0.148 ± 0.00881 s⁻¹; with O=C(O)Cc1cccc(O)c1, 0.254 ± 0.00895 s⁻¹.
